# In FireProtDB (doi:10.1021/bi972642d):
# Conditions: Bos taurus; pH 7; 25 °C; Urea; CD; Potassium phosphate 10 mM; whole UniProt chain shown
protein,measurement,value
"Protein S100-G wild type, P02633 (protein) MSAKKSPEELKGIFEKYAAKEGDPNQLSKEELKLLLQTEFPSLLKGPSTLDELFEELDKNGDGEVSFEEFQVLVKKISQ",denaturant m value,1.17 kcal/mol/M
same,denaturant midpoint (higher = more stable),5.6 M
same,unfolding free energy,6.55 kcal/mol
